# Source: the supplement of paper PMC5998384
# Assays:
# HeLa Kyoto [1] = experiment: solubility in G1/S (NP-40 vs SDS abundance) (log2 ratio); higher = more soluble; conditions: cell cycle stage: G1/S
# HeLa Kyoto [2] = experiment: solubility change mitosis vs G1/S (difference of NP-40 vs SDS log2 ratios) (log2 ratio difference); higher = more soluble in mitosis
# 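Throughout, for solubility change mitosis vs G1/S (difference of NP-40 vs SDS log2 ratios): synchronized HeLa Kyoto cells (double thymidine block for G1/S, nocodazole release for mitosis), protein amounts in NP-40 versus SDS lysates quantified by mass spectrometry, three biological replicates.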
# 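Throughout, for solubility in G1/S (NP-40 vs SDS abundance): HeLa Kyoto cells arrested at G1/S by double thymidine block, proteins quantified by TMT10plex mass spectrometry in mild NP-40 versus SDS extracts, three biological replicates.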
Substance,solubility in G1/S (log2) (HeLa Kyoto [1]),solubility change mitosis (log2) (HeLa Kyoto [2])
MAAQAAAAAQAAAAQAAQAEAADSWYLALLGFAEHFRTSSPPKIRLCVHCLQAVFPFKPPQRIEARTHLQLGSVLYHHTKNSEQARSHLEKAWLISQQIPQFEDVKFEAASLLSELYCQENSVDAAKPLLRKAIQISQQTPYWHCRLLFQLAQLHTLEKDLVSACDLLGVGAEYARVVGSEYTRALFLLSKGMLLLMERKLQEVHPLLTLCGQIVENWQGNPIQKESLRVFFLVLQVTHYLDAGQVKSVKPCLKQLQQCIQTISTLHDDEILPSNPADLFHWLPKEHMCVLVYLVTVMHSMQAGYLEKAQKYTDKALMQLEKLKMLDCSPILSSFQVILLEHIIMCRLVTGHKATALQEISQVCQLCQQSPRLFSNHAAQLHTLLGLYCVSVNCMDNAEAQFTTALRLTNHQELWAFIVTNLASVYIREGNRHQEVLYSLLERINPDHSFPVSSHCLRAAAFYVRGLFSFFQGRYNEAKRFLRETLKMSNAEDLNRLTACSLVLLGHIFYVLGNHRESNNMVVPAMQLASKIPDMSVQLWSSALLRDLNKACGNAMDAHEAAQMHQNFSQQLLQDHIEACSLPEHNLITWTDGPPPVQFQAQNGPNTSLASLL [MAU2],-0.154,-0.0035
MARGGDTGCTGPSETSASGAAAIALPGLEGPATDAQCQTLPLTVLKSRSPSPRSLPPALSCPPPQPAMLEHLSSLPTQMDYKGQKLAEQMFQGIILFSAIVGFIYGYVAEQFGWTVYIVMAGFAFSCLLTLPPWPIYRRHPLKWLPVQESSTDDKKPGERKIKRHAKNN [SPCS1],-0.248,-0.00723
MVMADGPRHLQRGPVRVGFYDIEGTLGKGNFAVVKLGRHRITKTEVAIKIIDKSQLDAVNLEKIYREVQIMKMLDHPHIIKLYQVMETKSMLYLVTEYAKNGEIFDYLANHGRLNESEARRKFWQILSAVDYCHGRKIVHRDLKAENLLLDNNMNIKIADFGFGNFFKSGELLATWCGSPPYAAPEVFEGQQYEGPQLDIWSMGVVLYVLVCGALPFDGPTLPILRQRVLEGRFRIPYFMSEDCEHLIRRMLVLDPSKRLTIAQIKEHKWMLIEVPVQRPVLYPQEQENEPSIGEFNEQVLRLMHSLGIDQQKTIESLQNKSYNHFAAIYFLLVERLKSHRSSFPVEQRLDGRQRRPSTIAEQTVAKAQTVGLPVTMHSPNMRLLRSALLPQASNVEAFSFPASGCQAEAAFMEEECVDTPKVNGCLLDPVPPVLVRKGCQSLPSNMMETSIDEGLETEGEAEEDPAHAFEAFQSTRSGQRRHTLSEVTNQLVVMPGAGKIFSMNDSPSLDSVDSEYDMGSVQRDLNFLEDNPSLKDIMLANQPSPRMTSPFISLRPTNPAMQALSSQKREVHNRSPVSFREGRRASDTSLTQGIVAFRQHLQNLARTKGILELNKVQLLYEQIGPEADPNLAPAAPQLQDLASSCPQEEVSQQQESVSTLPASVHPQLSPRQSLETQYLQHRLQKPSLLSKAQNTCQLYCKEPPRSLEQQLQEHRLQQKRLFLQKQSQLQAYFNQMQIAESSYPQPSQQLPLPRQETPPPSQQAPPFSLTQPLSPVLEPSSEQMQYSPFLSQYQEMQLQPLPSTSGPRAAPPLPTQLQQQQPPPPPPPPPPRQPGAAPAPLQFSYQTCELPSAASPAPDYPTPCQYPVDGAQQSDLTGPDCPRSPGLQEAPSSYDPLALSELPGLFDCEMLDAVDPQHNGYVLVN [SIK2],0.0463,-0.0513
MSSGLWSQEKVTSPYWEERIFYLLLQECSVTDKQTQKLLKVPKGSIGQYIQDRSVGHSRIPSAKGKKNQIGLKILEQPHAVLFVDEKDVVEINEKFTELLLAITNCEERFSLFKNRNRLSKGLQIDVGCPVKVQLRSGEEKFPGVVRFRGPLLAERTVSGIFFGVELLEEGRGQGFTDGVYQGKQLFQCDEDCGVFVALDKLELIEDDDTALESDYAGPGDTMQVELPPLEINSRVSLKVGETIESGTVIFCDVLPGKESLGYFVGVDMDNPIGNWDGRFDGVQLCSFACVESTILLHINDIIPALSESVTQERRPPKLAFMSRGVGDKGSSSHNKPKATGSTSDPGNRNRSELFYTLNGSSVDSQPQSKSKNTWYIDEVAEDPAKSLTEISTDFDRSSPPLQPPPVNSLTTENRFHSLPFSLTKMPNTNGSIGHSPLSLSAQSVMEELNTAPVQESPPLAMPPGNSHGLEVGSLAEVKENPPFYGVIRWIGQPPGLNEVLAGLELEDECAGCTDGTFRGTRYFTCALKKALFVKLKSCRPDSRFASLQPVSNQIERCNSLAFGGYLSEVVEENTPPKMEKEGLEIMIGKKKGIQGHYNSCYLDSTLFCLFAFSSVLDTVLLRPKEKNDVEYYSETQELLRTEIVNPLRIYGYVCATKIMKLRKILEKVEAASGFTSEEKDPEEFLNILFHHILRVEPLLKIRSAGQKVQDCYFYQIFMEKNEKVGVPTIQQLLEWSFINSNLKFAEAPSCLIIQMPRFGKDFKLFKKIFPSLELNITDLLEDTPRQCRICGGLAMYECRECYDDPDISAGKIKQFCKTCNTQVHLHPKRLNHKYNPVSLPKDLPDWDWRHGCIPCQNMELFAVLCIETSHYVAFVKYGKDDSAWLFFDSMADRDGGQNGFNIPQVTPCPEVGEYLKMSLEDLHSLDSRRIQGCARRLLCDAYMCMYQSPTMSLYK,0.0441,-0.178
MVGRSRRRGAAKWAAVRAKAGPTLTDENGDDLGLPPSPGDTSYYQDQVDDFHEARSRAALAKGWNEVQSGDEEDGEEEEEEVLALDMDDEDDEDGGNAGEEEEEENADDDGGSSVQSEAEASVDPSLSWGQRKKLYYDTDYGSKSRGRQSQQEAEEEEREEEEEAQIIQRRLAQALQEDDFGVAWVEAFAKPVPQVDEAETRVVKDLAKVSVKEKLKMLRKESPELLELIEDLKVKLTEVKDELEPLLELVEQGIIPPGKGSQYLRTKYNLYLNYCSNISFYLILKARRVPAHGHPVIERLVTYRNLINKLSVVDQKLSSEIRHLLTLKDDAVKKELIPKAKSTKPKPKSVSKTSAAACAVTDLSDDSDFDEKAKLKYYKEIEDRQKLKRKKEENSTEEQALEDQNAKRAITYQIAKNRGLTPRRKKIDRNPRVKHREKFRRAKIRRRGQVREVRKEEQRYSGELSGIRAGVKKSIKLK [UTP3],-1.76,1.04
MAHYKAADSKREQFRRYLEKSGVLDTLTKVLVALYEEPEKPNSALDFLKHHLGAATPENPEIELLRLELAEMKEKYEAIVEENKKLKAKLAQYEPPQEEKRAE [MYCBP],-0.523,0.968
MEEKYGGDVLAGPGGGGGLGPVDVPSARLTKYIVLLCFTKFLKAVGLFESYDLLKAVHIVQFIFILKLGTAFFMVLFQKPFSSGKTITKHQWIKIFKHAVAGCIISLLWFFGLTLCGPLRTLLLFEHSDIVVISLLSVLFTSSGGGPAKTRGAAFFIIAVICLLLFDNDDLMAKMAEHPEGHHDSALTHMLYTAIAFLGVADHKGGVLLLVLALCCKVGFHTASRKLSVDVGGAKRLQALSHLVSVLLLCPWVIVLSVTTESKVESWFSLIMPFATVIFFVMILDFYVDSICSVKMEVSKCARYGSFPIFISALLFGNFWTHPITDQLRAMNKAAHQESTEHVLSGGVVVSAIFFILSANILSSPSKRGQKGTLIGYSPEGTPLYNFMGDAFQHSSQSIPRFIKESLKQILEESDSRQIFYFLCLNLLFTFVELFYGVLTNSLGLISDGFHMLFDCSALVMGLFAALMSRWKATRIFSYGYGRIEILSGFINGLFLIVIAFFVFMESVARLIDPPELDTHMLTPVSVGGLIVNLIGICAFSHAHSHAHGASQGSCHSSDHSHSHHMHGHSDHGHGHSHGSAGGGMNANMRGVFLHVLADTLGSIGVIVSTVLIEQFGWFIADPLCSLFIAILIFLSVVPLIKDACQVLLLRLPPEYEKELHIALEKIQKIEGLISYRDPHFWRHSASIVAGTIHIQVTSDVLEQRIVQQVTGILKDAGVNNLTIQVEKEAYFQHMSGLSTGFHDVLAMTKQMESMKYCKDGTYIM [SLC30A5],-0.143,-0.241
MDSTKEKCDSYKDDLLLRMGLNDNKAGMEGLDKEKINKIIMEATKGSRFYGNELKKEKQVNQRIENMMQQKAQITSQQLRKAQLQVDRFAMELEQSRNLSNTIVHIDMDAFYAAVEMRDNPELKDKPIAVGSMSMLSTSNYHARRFGVRAAMPGFIAKRLCPQLIIVPPNFDKYRAVSKEVKEILADYDPNFMAMSLDEAYLNITKHLEERQNWPEDKRRYFIKMGSSVENDNPGKEVNKLSEHERSISPLLFEESPSDVQPPGDPFQVNFEEQNNPQILQNSVVFGTSAQEVVKEIRFRIEQKTTLTASAGIAPNTMLAKVCSDKNKPNGQYQILPNRQAVMDFIKDLPIRKVSGIGKVTEKMLKALGIITCTELYQQRALLSLLFSETSWHYFLHISLGLGSTHLTRDGERKSMSVERTFSEINKAEEQYSLCQELCSELAQDLQKERLKGRTVTIKLKNVNFEVKTRASTVSSVVSTAEEIFAIAKELLKTEIDADFPHPLRLRLMGVRISSFPNEEDRKHQQRSIIGFLQAGNQALSATECTLEKTDKDKFVKPLEMSHKKSFFDKKRSERKWSHQDTFKCEAVNKQSFQTSQPFQVLKKKMNENLEISENSDDCQILTCPVCFRAQGCISLEALNKHVDECLDGPSISENFKMFSCSHVSATKVNKKENVPASSLCEKQDYEAHPKIKEISSVDCIALVDTIDNSSKAESIDALSNKHSKEECSSLPSKSFNIEHCHQNSSSTVSLENEDVGSFRQEYRQPYLCEVKTGQALVCPVCNVEQKTSDLTLFNVHVDVCLNKSFIQELRKDKFNPVNQPKESSRSTGSSSGVQKAVTRTKRPGLMTKYSTSKKIKPNNPKHTLDIFFK [POLK],-0.534,0.335
MKPVHERSQECLPPKKRDLPVTSEDMGRTTSCSTNHTPSSDASEWSRGVVVAGQSQAGARVSLGGDGAEAITGLTVDQYGMLYKVAVPPATFSPTGLPSVVNMSPLPPTFNVASSLIQHPGIHYPPLHYAQLPSTSLQFIGSPYSLPYAVPPNFLPSPLLSPSANLATSHLPHFVPYASLLAEGATPPPQAPSPAHSFNKAPSATSPSGQLPHHSSTQPLDLAPGRMPIYYQMSRLPAGYTLHETPPAGASPVLTPQESQSALEAAAANGGQRPRERNLVRRESEALDSPNSKGEGQGLVPVVECVVDGQLFSGSQTPRVEVAAPAHRGTPDTDLEVQRVVGALASQDYRVVAAQRKEEPSPLNLSHHTPDHQGEGRGSARNPAELAEKSQARGFYPQSHQEPVKHRPLPKAMVVANGNLVPTGTDSGLLPVGSEILVASSLDVQARATFPDKEPTPPPITSSHLPSHFMKGAIIQLATGELKRVEDLQTQDFVRSAEVSGGLKIDSSTVVDIQESQWPGFVMLHFVVGEQQSKVSIEVPPEHPFFVYGQGWSSCSPGRTTQLFSLPCHRLQVGDVCISISLQSLNSNSVSQASCAPPSQLGPPRERPERTVLGSRELCDSEGKSQPAGEGSRVVEPSQPESGAQACWPAPSFQRYSMQGEEARAALLRPSFIPQEVKLSIEGRSNAGK [ATXN1L],0.172,-0.12
MGVSKLDILYRRLLLTKLFIRGWGRPEDLKRLFEFRKMIGNRERCQNLVSSDYPVHIDKIEEQSDCKILDGHFVSPMAHYVPDIMPIESVIARFQFIVPKEWNSKYRPVCIHLAGTGDHHYWRRRTLMARPMIKEARMASLLLENPYYGCRKPKDQVRSSLKNVSDLFVMGGALVLESAALLHWLEREGYGPLGMTGISMGGHMASLAVSNWPKPMPLIPCLSWSTASGVFTTTDSFKMGQEFVKHFTSSADKLTNLNLVSRTLNLDISNQVVSQKPADCHNSSKTSVSATSEGLLLQDTSKMKRFNQTLSTNKSGYTSRNPQSYHLLSKEQSRNSLRKESLIFMKGVMDECTHVANFSVPVDPSLIIVVQAKEDAYIPRTGVRSLQEIWPGCEIRYLEGGHISAYLFKQGLFR [ABHD18],-0.33,-0.181
NUFIP1,-0.519,0.162
